Measured values published in patent US20130345129A1 (OTSUKA CHEMICAL, published 2013).
No end group written: not given here. asialo oligosaccharide = asialo (digalactose) oligosaccharide chain

T1: mouse GLP-1 receptor (mouse, UniProt O35659 22-463)
T1 sequence (looked up): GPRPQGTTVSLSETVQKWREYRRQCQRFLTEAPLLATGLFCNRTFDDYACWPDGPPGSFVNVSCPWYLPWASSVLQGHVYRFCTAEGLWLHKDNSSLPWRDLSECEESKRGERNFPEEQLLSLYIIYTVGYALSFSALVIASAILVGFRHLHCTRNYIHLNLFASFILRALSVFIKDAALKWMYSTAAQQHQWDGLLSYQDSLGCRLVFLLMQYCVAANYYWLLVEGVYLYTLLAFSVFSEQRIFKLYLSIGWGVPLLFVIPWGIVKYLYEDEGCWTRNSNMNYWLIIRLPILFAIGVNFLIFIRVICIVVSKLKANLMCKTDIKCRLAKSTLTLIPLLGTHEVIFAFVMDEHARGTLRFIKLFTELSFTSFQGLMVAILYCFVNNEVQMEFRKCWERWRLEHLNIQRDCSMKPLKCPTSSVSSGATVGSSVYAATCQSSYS


Target: T1, mouse GLP-1 receptor
Assay: cell-based or functional assay

Binder | Relative Activity (cAMP synthesis, EC50 relative to GLP-1 = 1)
CHAEGTFTSDVSSYLEGQAAKEFIAWLVKGRG (disialo oligosaccharide chain added Cys at position 6 (added before 7His; chain attached to Cys with bromoacetamidyl disialo oligosaccharide)) [6Cys GLP-1-disialo] | < 0.1 relative (GLP-1 = 1)
HAEGTFTC(disialo oligosaccharide)DVSSYLEGQAAKEFIAWLVKGRG [14Cys GLP-1-disialo] | < 0.1 relative (GLP-1 = 1)
HAEGC(disialo oligosaccharide)FTSDVSSYLEGQAAKEFIAWLVKGRG [11Cys GLP-1-disialo] | < 0.1 relative (GLP-1 = 1)
HAEGTFTSDC(disialo oligosaccharide)SSYLEGQAAKEFIAWLVKGRG [16Cys GLP-1-disialo] | < 0.1 relative (GLP-1 = 1)
HAEGTC(disialo oligosaccharide)TSDVSSYLEGQAAKEFIAWLVKGRG [12Cys GLP-1-disialo] | < 0.1 relative (GLP-1 = 1)
HAEGTFTSDVSC(disialo oligosaccharide)YLEGQAAKEFIAWLVKGRG [18Cys GLP-1-disialo] | < 0.1 relative (GLP-1 = 1)
HAEC(disialo oligosaccharide)TFTSDVSSYLEGQAAKEFIAWLVKGRG [10Cys GLP-1-disialo] | < 0.1 relative (GLP-1 = 1)
HAEGTFTSDVSSYC(disialo oligosaccharide)EGQAAKEFIAWLVKGRG [20Cys GLP-1-disialo] | < 0.1 relative (GLP-1 = 1)
HAEGTFTSDVSSYLEC(disialo oligosaccharide)QAAKEFIAWLVKGRG [22Cys GLP-1-disialo] | 1 relative (GLP-1 = 1)
HC(disialo oligosaccharide)EGTFTSDVSSYLEGQAAKEFIAWLVKGRG [8Cys GLP-1-disialo] | < 0.1 relative (GLP-1 = 1)
HAC(disialo oligosaccharide)GTFTSDVSSYLEGQAAKEFIAWLVKGRG [9Cys GLP-1-disialo] | < 0.1 relative (GLP-1 = 1)

Other lines, results leading:

Relative Activity (cAMP synthesis, EC50 relative to GLP-1 = 1) | Binder
0.2 relative (GLP-1 = 1) | HAEGTFTSDVSSYLEGQAAC(disialo oligosaccharide)EFIAWLVKGRG [26Cys GLP-1-disialo]
0.2 relative (GLP-1 = 1) | HAEGTFTSDVSSYLEGQAAKC(disialo oligosaccharide)FIAWLVKGRG [27Cys GLP-1-disialo]
0.7 relative (GLP-1 = 1) | HAEGTFTSDVSSYLEGQAAKEFIAWLVC(disialo oligosaccharide)GRG [34Cys GLP-1-disialo]
< 0.1 relative (GLP-1 = 1) | HAEGTFTSDVSSYLEGQC(disialo oligosaccharide)AKEFIAWLVKGRG [24Cys GLP-1-disialo]
< 0.1 relative (GLP-1 = 1) | HAEGTFTSDVSSYLEGQAC(disialo oligosaccharide)KEFIAWLVKGRG [25Cys GLP-1-disialo]
0.8 relative (GLP-1 = 1) | HAEGTFTSDVSSYLEGQAAC(asialo oligosaccharide)EFIAWLVKGRG [26Cys GLP-1-asialo]
< 0.1 relative (GLP-1 = 1) | HAEGTFTSDVSSYLEGQAAKEFIAWC(disialo oligosaccharide)VKGRG [32Cys GLP-1-disialo]
2.2 relative (GLP-1 = 1) | HAEGTFTSDVSSYLEGQAAKEFIAWLVC(asialo oligosaccharide)GRG [34Cys GLP-1-asialo]
< 0.1 relative (GLP-1 = 1) | HAEGTFTSDVSSYLEGQAAKEC(disialo oligosaccharide)IAWLVKGRG [28Cys GLP-1-disialo]
1.9 relative (GLP-1 = 1) | HAEGTFTSDVSSYLEGQAAKEFIAWLVKGC(disialo oligosaccharide)G [36Cys GLP-1-disialo]
0.6 relative (GLP-1 = 1) | HAEGTFTSDVSSYLEGQAAKEFIC(disialo oligosaccharide)WLVKGRG [30Cys GLP-1-disialo]
1.9 relative (GLP-1 = 1) | HAEGTFTSDVSSYLEGQAAKEFIAWLVKGRGC (disialo oligosaccharide chain added Cys at position 38 (added after 37Gly)) [38Cys GLP-1-disialo]
